Test results: patent WO2012074097A1 (dated 2012)
Numbering of substitutions follows the chain as printed.

B1: anti-CD33 monoclonal antibody KM4075 (antibody, V domains shown)
VH: QLQESGPGLVKPSQSLSLTCSVTGYTITSGSDWSWIRKFPGNKMEWMGYISYSGNTNYNPSLKSRISITRDTSKNQFFLHLNSVTTADTATYYCTGKGWGQGVMVTVSS
VL: DVVLTQTPVSLSVTLGDQASISCRSSQSLEYSDGYTYLEWYLQKPGHSPQLLIYGVSNRFSGVPDRFIGSGSGTDFTLRISRVEPEDLGVYYCFQATHDPYTFGAGTKLEL
notes: Hybridoma antibody from rat or mouse
B2: anti-CD33 chimeric antibody KM4054 (antibody, V domains shown)
VH: QLQETGPGLVKPSQSLSLTCSVTGYTITSGYEWTWIRKFPGNRMEWMGYINSSGSTDYNPSLKSRVSITRDTSKNQFFLQLNSVTTEDTATYFCTRWDRWGPGVMVTVSS
VL: DVVLTQTLVAQPVRLGDQASISCRSSQSLVHSDGHTYLEWYLQKPGQSPQLLIYEISNRFSGVPDRFSGSGSGSDFTLKISRVEPEDLGLYYCFQGTHDLPTFGGGTKLELK
notes: Expressed in FUT8 knockout CHO cells, so no core fucose
B3: modified CD33 chimeric antibody ver.4 (KM4084) (antibody, V domains shown)
VH: B2 VH with S53A
VL: B2 VL
B4: modified CD33 chimeric antibody ver.2 (antibody, V domains shown)
VH: B2 VH with N51S
VL: B2 VL
B5: modified CD33 chimeric antibody ver.1 (antibody, V domains shown)
VH: B2 VH with N51Y
VL: B2 VL
B6: modified CD33 chimeric antibody ver.5 (antibody, V domains shown)
VH: B2 VH with S53G
VL: B2 VL
B7: modified CD33 chimeric antibody ver.3 (antibody, V domains shown)
VH: B2 VH with N51Q
VL: B2 VL
B8: anti-CD33 monoclonal antibody KM4073 (antibody, V domains shown)
VH: QVKLLQSGAALVKPGASVKMSCKVSGYTFTDYWVNWVKQSHGKTLEWIGEIYPNSGATNFNEKFKDKATLTVDRSTSTAYLEFSRLTSEDSAIYYCSLGPYWGQGVMVTVSS
VL: DVVLTQTPPTLSATIGQSVSISCRSSQSLLDSDGQTYLNWFLQRPGQSPQLLIYSVSNLESGVPNRFSGSGSETDFTLKISGVEAEDLGLYYCMQATHAPLTFGSGTNLEIK
notes: as for B1
B9: anti-CD33 monoclonal antibody KM4071 (antibody, V domains shown)
VH: QIQLVQSGPELKKPEETVKISCKASDYTFTDYSIHWVKQAPGKGLKWMGWINTETGETTNADDLKGRFAFSVETSASTAYLQINNLKNEDTATYFCARYRYDASYGMDYWGQGTSVTVSS
VL: STVLTQSPKSMSMSVGERVTLSCKASENVGTYVSWYQQKPEQSPELLIYGSSNRSTGVPDRFTGSGSATDFTLTISSVQAEDLADYHCGQSYSYPPTFGGGTRLEIK
notes: as for B1
B10: anti-CD33 monoclonal antibody KM4074 (antibody, V domains shown)
VH: B2 VH
VL: B2 VL
notes: as for B1
B11: anti-CD33 monoclonal antibody KM4072 (antibody, V domains shown)
VH: QVQLQQSGAELVKPGASVKMSCKASGYTFTTYPIEWMKQNHGKSLEWIGNFHPYNDDTEYNEKFKGKATLTVEKSSSTVYLELSRLTSDDSAVYYCARGYYYAMDYWGQGTSVTVSS
VL: DAVMTQTPLSLPVSLGDQASISCRSSQSLEDSNGNTYLNWYLQKPGQSPQLLIYRVSNRFSGVLDRFSGSGSGTDFTLKISRVEAEDLGVYFCLQLTHVPWTFGGGTKLEIK
notes: as for B1

These binders were tested against T1, human CD33 on cells (human CD33-expressing CHO/DG44 cell line; CD33-positive cell lines THP-1, NB-4) (human, UniProt P20138 18-364) (assay: flow cytometry on THP-1 cells).
T1 construct: The same entry is used here for the endogenous CD33 of THP-1, NB-4 and other leukemia lines; also called hCD33; CD33 transfectant
T1 sequence (P20138 other isoform, or with tags, fused parts or gaps limits assumed): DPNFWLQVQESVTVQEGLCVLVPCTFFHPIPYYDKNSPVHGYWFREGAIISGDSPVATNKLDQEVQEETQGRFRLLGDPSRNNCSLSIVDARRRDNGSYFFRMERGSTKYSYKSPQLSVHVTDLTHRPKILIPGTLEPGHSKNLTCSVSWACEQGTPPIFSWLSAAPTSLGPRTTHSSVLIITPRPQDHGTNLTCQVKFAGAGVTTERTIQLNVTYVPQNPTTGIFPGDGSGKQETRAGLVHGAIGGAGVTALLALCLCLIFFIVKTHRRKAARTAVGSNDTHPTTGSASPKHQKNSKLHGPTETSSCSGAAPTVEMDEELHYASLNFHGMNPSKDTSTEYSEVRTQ

binding result	Binder
binds	B1
binds	B2

Each binder was assayed against T2, Recombinant human Siglec-3 (CD33)/Fc Chimera (R&D Systems, catalog number 1137-SL) (human, UniProt P20138 18-259) (assay: binding ELISA, CD33-Fc on the plate).
T2 construct: Bought product; also called recombinant human CD33-Fc; not shown: Fc part of the bought fusion protein; not described
T2 sequence (P20138 18-259 limits assumed, change not shown): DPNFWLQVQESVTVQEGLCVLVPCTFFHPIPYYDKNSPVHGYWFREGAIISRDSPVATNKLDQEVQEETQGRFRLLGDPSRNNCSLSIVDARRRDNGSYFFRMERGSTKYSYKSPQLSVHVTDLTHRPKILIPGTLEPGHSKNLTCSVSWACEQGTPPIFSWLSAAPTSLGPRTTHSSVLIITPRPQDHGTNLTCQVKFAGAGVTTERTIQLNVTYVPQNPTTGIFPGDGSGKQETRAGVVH

binding result	Binder
binds	B2

The binders below were run against T3, histidine-tagged soluble human CD33 (hCD33-His) (human, UniProt P20138 18-259) (assay: SPR (Biacore T-100), antibody captured on anti-human IgG, hCD33-His as analyte).
T3 construct: Human CD33 extracellular region with six histidines at the C-terminus, made in CHO/DG44 cells
T3 sequence (P20138 other isoform, or with tags, fused parts or gaps limits assumed): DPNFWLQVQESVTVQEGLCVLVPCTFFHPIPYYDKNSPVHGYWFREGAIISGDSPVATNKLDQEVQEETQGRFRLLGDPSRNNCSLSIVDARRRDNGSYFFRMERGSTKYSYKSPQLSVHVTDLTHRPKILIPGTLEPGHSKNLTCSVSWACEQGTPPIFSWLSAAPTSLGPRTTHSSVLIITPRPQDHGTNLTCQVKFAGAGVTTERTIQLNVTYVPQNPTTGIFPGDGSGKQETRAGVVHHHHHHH

binding result	Binder
binds	B2
binds	B3
binds	B4
binds	B5
binds	B6
binds	B7

These binders were tested against T2, Recombinant human Siglec-3 (CD33)/Fc … (assay: SPR (Biacore T-100), antibody captured on anti-mouse IgG, CD33-Fc as analyte).

binding result	Binder
binds	B8
binds	B9
binds	B1
binds	B10

What follows are binders tested against T1, human CD33 on cells (human …) (assay: FMAT on human CD33-expressing CHO/DG44 cells, hybridoma supernatant).

binding result	Binder
binds	B8
binds	B11
binds	B9
binds	B10
